# Legend:
# [1] = tested on: constitutive amiloride-sensitive inward Na^+ current in high-grade glioma (GBM) cells; assay: Whole-cell patch clamp, freshly resected and primary cultured high-grade glioma (Grade III/IV, GBM) cells; format: cell-based, human; details: 10 nM peptide; freshly resected GBM
# Description: FIGS. 2A-C show representative whole-cell patch clamp recordings.
# FIGS. 4A and B show summary I-V curves of freshly resected normal astrocytes (FIG. 4A) and GBM cells (FIG. 4B). Inward currents (−60 mV) were −7.5±1.2 pA (normal) and −43.8±14.5 pA (GBM). Outward currents (+40 mV) averaged 42.2±2.4 pA and 47.2±12.5 pA for normal and GBMs, respectively. FIGS. 4C and D show summary amiloride-sensitive (difference) currents of freshly resected normal astrocytes (FIG. 4C) and GBM cells (FIG. 4D).
# A constitutive amiloride-sensitive inward Na^+ conductance has been reported in human high-grade glioma cells. […] These inward Na^+ currents were not present in normal astrocytes or in low-grade astrocytomas (e.g., pilocytic astrocytomas). However, the composition of the channels responsible for the inward Na^+ conductance has not been reported. FIGS. 2A-C show representative whole cell patch-clamp measurements on tissue derived from a freshly resected human glioblastoma multiforme (GBM; WHO grade IV), normal astrocytes obtained from patients undergoing surgery for intractable epilepsy, and primary cultures of different grade glial tumors. […] However, there was no significant inward Na^+ current in normal astrocytes and Grades I and II astrocytoma cells (FIG. 2C).
# Summary current-voltage (I-V) curves are presented for normal astrocytes and GBM cells in FIG. 4A and FIG. 4B, respectively, while difference I-V curves for normal astrocytes and GBM cells are presented in FIG. 4C and FIG. 4D, respectively. The GBM cells are depolarized by an average of 31 mV compared to the normal astrocytes under these recording conditions. The depolarized zero current membrane potential is due to the presence of an enhanced Na^+ conductance as is shown in the difference I-V curves.
# (§1) FIG. 19A show representative whole-cell patch clamp recordings of ZR-75-1 and SKMEL-2 cells in the basal state.
# [2] = tested on: inward Na^+ currents in SK-MG cells; assay: Whole-cell patch clamp, SK-MG glioma cells; format: cell-based, human; details: 10 nM peptide
# Protocol: FIGS. 7A-7C show representative whole-cell patch clamp recordings.
# The amiloride-sensitive inward Na^+ currents are measured regardless of whether ASIC2 is absent or present (FIGS. 7A-D). Whole-cell patch clamp recordings were obtained from U87-MG, SK-MG, and D54-MG glioma cells in the basal state. […] This inhibition of the inward current occurred regardless of the absence or presence of ASIC2 mRNA (FIG. 7D) (as detected by RT-PCR as described above).
# as §1
# ASIC1 = molecular target: T1, ASIC1 (Homo sapiens, UniProt P78348); assay: Acid-activated currents in voltage-clamped Xenopus oocytes expressing ASIC1; format: cell-based; details: 1 nM peptide (FIG. 20); pHo 4.0; −60 mV
# T1 sequence (P78348 1-528): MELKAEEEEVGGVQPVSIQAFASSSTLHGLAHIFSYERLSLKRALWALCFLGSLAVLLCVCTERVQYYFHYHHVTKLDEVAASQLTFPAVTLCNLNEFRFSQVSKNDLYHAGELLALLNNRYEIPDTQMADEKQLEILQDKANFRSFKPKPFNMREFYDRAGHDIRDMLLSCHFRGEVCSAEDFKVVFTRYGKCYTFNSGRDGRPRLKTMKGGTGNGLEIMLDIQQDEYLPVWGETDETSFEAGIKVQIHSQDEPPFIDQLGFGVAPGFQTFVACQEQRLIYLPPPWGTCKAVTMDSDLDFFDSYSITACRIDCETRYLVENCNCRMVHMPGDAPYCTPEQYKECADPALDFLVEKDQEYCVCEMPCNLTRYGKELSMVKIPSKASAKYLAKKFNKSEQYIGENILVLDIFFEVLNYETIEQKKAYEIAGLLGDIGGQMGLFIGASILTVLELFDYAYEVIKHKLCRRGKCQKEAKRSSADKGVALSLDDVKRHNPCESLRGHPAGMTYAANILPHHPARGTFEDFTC
# Description: FIGS. 8A-C show acid-activated ASIC currents in Xenopus oocytes. ASIC 2 (FIG. 8A), ASIC1 (FIG. 8B) and the combination of ASIC2 and ASIC1 (FIG. 8C) were examined. […] Each oocyte served as its own control.
# (§2) Membrane potential was held at −60 mV, and the pHo was step decreased to 4.0 for 10 s, and then returned to 7.4 for 30 s before repeating the sequence.
# Xenopus oocytes were used to express ASIC1 and ASIC2 mRNA individually and in combination. Oocyte preparation, cRNA injection, and two-electrode voltage clamp recordings were performed as described (33,67-69).
# as §2
# D54-MG glioma cells = assay: Transwell Migration Assay, D54-MG cells; format: cell-based, human; details: 3 h, vitronectin
# Protocol: 5-8 μm polycarbonate Transwell filters were coated on the lower surface with or vitronectin ([…] in PBS). […] of D54MG cells (400,000 cells/ml were added to the upper chamber), in the presence or absence of benzamil, and migration was allowed to proceed for 3 hours. Migration was determined according to standard procedures (120). N-amidino-3,5-diamino-pyrazinecarboxamide was used as a control.
# To begin to investigate the role of the inward Na^+ conductance in the invasive behavior of tumor cells, a Transwell Migration Assay was used to assess cell chemotaxis and invasiveness (FIG. 17). D54-MG cells were plated on the upper side of a filter insert perforated with 5-8 μm holes, and induced to migrate through these pores toward the extracellular matrix protein vitronectin (coated on the underside of the filter). Benzamil, at 10, 20, 50, or 100 μM, was added to both chambers at time 0. After a 3 h migration time, cells were fixed, stained with crystal violet, and counted. BSA-coated filter inserts were used as negative controls. […]
# Approximately 10,000 cells were added to the upper side of a filter insert perforated with 5-8 μm holes, and induced to migrate through these pores toward the extracellular matrix protein vitronectin (coated on the underside of the filter). […] Cells were counted on an inverted microscope, averaging five fields per Transwell chamber. […]
# U87-MG cells = assay: Transwell Migration Assay, U87-MG cells; format: cell-based, human; details: 3 h, vitronectin
# primary GBM cultures = assay: Transwell Migration Assay, primary GBM cultures; format: cell-based, human; details: 3 h, vitronectin
# Protocol: Approximately 10,000 cells were added to the upper side of a filter insert perforated with 5-8 μm holes, and induced to migrate through these pores toward the extracellular matrix protein vitronectin (coated on the underside of the filter). PcTX1 or control scrambled PcTX1 peptide was added to each compartment at the same time as the cells. BSA-coated filter inserts were used as negative controls. After 3 h, cells were fixed with 4% paraformaldehyde, and subsequently stained with crystal violet. Cells were counted on an inverted microscope, averaging five fields per Transwell chamber. Four-to-ten chambers were used under each condition.
# [3] = molecular target: T2, ASIC1 (recombinant: in vitro translated in proteoliposomes, expressed in Xenopus oocytes, reconstituted in planar lipid bilayers) (UniProt P78348)
# T2 sequence: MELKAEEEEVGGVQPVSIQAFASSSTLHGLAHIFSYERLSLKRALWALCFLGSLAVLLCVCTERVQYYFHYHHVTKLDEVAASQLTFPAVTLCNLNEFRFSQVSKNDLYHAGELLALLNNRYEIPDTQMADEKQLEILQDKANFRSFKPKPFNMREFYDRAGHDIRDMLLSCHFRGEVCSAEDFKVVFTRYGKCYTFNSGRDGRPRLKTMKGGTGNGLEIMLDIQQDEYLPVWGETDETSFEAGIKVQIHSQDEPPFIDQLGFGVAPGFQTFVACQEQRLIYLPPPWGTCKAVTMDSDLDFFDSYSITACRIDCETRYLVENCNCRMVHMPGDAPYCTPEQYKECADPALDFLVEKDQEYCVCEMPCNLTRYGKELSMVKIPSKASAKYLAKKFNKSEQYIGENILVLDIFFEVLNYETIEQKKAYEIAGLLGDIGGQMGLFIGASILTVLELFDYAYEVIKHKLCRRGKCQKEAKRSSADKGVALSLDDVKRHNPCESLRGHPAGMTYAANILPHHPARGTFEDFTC
substance,measurement,setting,value
scrambled PcTX1 control peptide: 40mer scrambled control peptide having the same amino acid content as PcTX1; SEQ ID NO: 3 (VLEPCKWGFRTCKGEDINCPKVWTRERSKCDCEVKRCHGP; control peptide),block of constitutive inward Na^+ current,[1],unaffected
same,block of constitutive inward Na^+ current,[2],unaffected
same,block of acid-induced inward currents,ASIC1,without effect
same,diminished ability to migrate through the filter,D54-MG glioma cells,without effect
same,diminished ability to migrate through the filter,U87-MG cells,without effect
same,diminished ability to migrate through the filter,primary GBM cultures,without effect
PKCδ,in vitro phosphorylation of ASIC1,[3],"PKC holoenzyme, PKCβI, PKCβII, PKCδ, PKCε, and PKCζ phosphorylated ASIC1 in vitro."
PKC holoenzyme,ASIC1 activity in planar lipid bilayers,[3],PKC holoenzyme or the combination of PKCβI and PKCβII isoforms inhibited ASIC1.
same,in vitro phosphorylation of ASIC1,[3],"PKC holoenzyme, PKCβI, PKCβII, PKCδ, PKCε, and PKCζ phosphorylated ASIC1 in vitro."
PKCε,ASIC1 activity in planar lipid bilayers,[3],"Neither PKCε, PKCζ, nor their combination had any effect on ASIC1 activity in bilayers."
same,in vitro phosphorylation of ASIC1,[3],"PKC holoenzyme, PKCβI, PKCβII, PKCδ, PKCε, and PKCζ phosphorylated ASIC1 in vitro."
PKCβII,ASIC1 activity in planar lipid bilayers (PKCβI and PKCβII added in combination),[3],PKC holoenzyme or the combination of PKCβI and PKCβII isoforms inhibited ASIC1.
same,in vitro phosphorylation of ASIC1,[3],"PKC holoenzyme, PKCβI, PKCβII, PKCδ, PKCε, and PKCζ phosphorylated ASIC1 in vitro."

# From patent US20070092444A1, “Inhibition of inward sodium currents in cancer” (priority 2003, published 2007)
